# Experimental data published in patent CN111303279A (INST PATHOGEN BIOLOGY CAMS, dated 2020).
# Assays:
# [1] = target: SARS-CoV-2病毒的包膜刺突糖蛋白(即S蛋白) (SARS-CoV-2, UniProt P0DTC2 14-1273); assay: cell-based or functional assay
# SARS-CoV-2刺突蛋白RBD区重组蛋白 [2] = target: T1, SARS-CoV-2刺突蛋白RBD区重组蛋白 (SARS-CoV-2, UniProt P0DTC2 319-541); assay: SPR, BIAcore T-200, RBD amine-coupled on CM5 chip, VHH in flow
# SARS-CoV-2刺突蛋白RBD区重组蛋白 [3] = target: T1, SARS-CoV-2刺突蛋白RBD区重组蛋白; assay: SPR, BIAcore T-200; range told of the group, this end tied to 4D8 by table 1
# SARS-CoV-2刺突蛋白RBD区重组蛋白 [4] = target: T1, SARS-CoV-2刺突蛋白RBD区重组蛋白; assay: SPR, BIAcore T-200; range told of the group, this end tied to 5F8 by table 1
Binder,"抑制SARS-CoV-2假型病毒感染 IC50 (luciferase, Calu-3细胞) [1]",Kd (SARS-CoV-2刺突蛋白RBD区重组蛋白 [2]),koff (SARS-CoV-2刺突蛋白RBD区重组蛋白 [2]),kon (SARS-CoV-2刺突蛋白RBD区重组蛋白 [2]),Kd (SARS-CoV-2刺突蛋白RBD区重组蛋白 [3]),Kd (SARS-CoV-2刺突蛋白RBD区重组蛋白 [4])
单域抗体4D8 (VHH) VHH: QVQLVESGGGLVQPGGSLRLSCAASGNIDSTRYHGWFRQAPGKGLEAVAAIKGVWPEDYYADSVKGRFTISRDNSKNTLYLQMNSLRAEDTAVYYCAADQYEWWVPGEVGPYLYWGQGTQVTVSS,0.247 µg/mL,34 nM,0.00613 s⁻¹,180000 M⁻¹ s⁻¹,33.9 nM,–
单域抗体2F2 (VHH) VHH: QVQLVESGGGLVQPGGSLRLSCAASGLAQSKWAYGWFRQAPGKGLEAVAAIDVATGPWYYADSVKGRFTISRDNSKNTLYLQMNSLRAEDTAVYYCAAHHIPTKHPAFPDFRDYWGQGTQVTVSS,0.0235 µg/mL,0.846 nM,0.000313 s⁻¹,370000 M⁻¹ s⁻¹,–,–
单域抗体5F8 (VHH) VHH: QVQLVESGGGLVQPGGSLRLSCAASGRQAVVFGWFRQAPGKGLEAVAAIHVPAKNRYYADSVKGRFTISRDNSKNTLYLQMNSLRAEDTAVYYCAAHYEFNDFVWQGYSSDYWGQGTQVTVSS,0.00338 µg/mL,0.716 nM,0.000211 s⁻¹,295000 M⁻¹ s⁻¹,–,0.71 nM
单域抗体1E2 (VHH) VHH: QVQLVESGGGLVQPGGSLRLSCAASGADAFVIIGGWFRQAPGKGLEAVAAIAWTDQHEYYADSVKGRFTISRDNSKNTLYLQMNSLRAEDTAVYYCAAQDSAYIKSKGSRAYEYWGQGTQVTVSS,0.31 µg/mL,21.1 nM,0.00518 s⁻¹,245000 M⁻¹ s⁻¹,–,–
单域抗体3F11 (VHH) VHH: QVQLVESGGGLVQPGGSLRLSCAASGGNAAERMAGWFRQAPGKGLEAVAAIYYAKFGPYYADSVKGRFTISRDNSKNTLYLQMNSLRAEDTAVYYCAAEAFVQSPYSGSHTTKYWGQGTQVTVSS,0.0038 µg/mL,3.15 nM,0.00675 s⁻¹,2.14e+06 M⁻¹ s⁻¹,–,–
